Experimental data from PMC5488163.

Biological target: free 17K‐apo(a) variant (purified recombinant apolipoprotein(a) with 17 KIV domains) (human)
Assay: co-IP

purified HCVcc, infectious hepatitis C virus particles (JFH1‐CS‐A4‐RLuc‐TM) (complex)
percent of HCV RNAs coimmunoprecipitated: 39.9%
